Test results reported in patent US20240174753A1 (ANWITA BIOSCIENCES, published 2024).

T1: CD25-Fc fusion protein (UniProt P01589 22-213, limits assumed)
T1 construct: also called IL-2Rα; not shown: Fc part
T1 sequence (looked up): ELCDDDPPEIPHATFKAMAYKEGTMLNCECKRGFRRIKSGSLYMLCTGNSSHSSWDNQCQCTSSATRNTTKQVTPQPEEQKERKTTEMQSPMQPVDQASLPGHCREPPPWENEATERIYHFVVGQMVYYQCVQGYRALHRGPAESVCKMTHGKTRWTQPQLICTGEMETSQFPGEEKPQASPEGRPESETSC

T2: CD122-Fc fusion protein (UniProt P14784 27-240, limits assumed)
T2 construct: also called IL-2Rβ; not shown: Fc part
T2 sequence (looked up): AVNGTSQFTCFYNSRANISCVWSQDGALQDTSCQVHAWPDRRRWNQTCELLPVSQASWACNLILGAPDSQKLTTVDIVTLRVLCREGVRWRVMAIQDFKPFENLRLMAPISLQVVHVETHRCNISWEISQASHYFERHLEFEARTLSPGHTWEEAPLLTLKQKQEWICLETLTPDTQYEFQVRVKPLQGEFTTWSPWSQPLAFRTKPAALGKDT


Tests used:
CD25-Fc fusion protein = molecular target: T1, CD25-Fc fusion protein; test: BLI (Octet RED96); CD25-Fc on AHC biosensor, IL-2 mutein at 400 nM; set-up: unit not given here
Text: (§1) Briefly, an CD25- or CD122-Fc fusion protein was loaded onto an anti-human IgG Fc capture (AHC) biosensor.

CD122-Fc fusion protein = molecular target: T2, CD122-Fc fusion protein; test: BLI (Octet RED96); CD122-Fc on AHC biosensor, IL-2 mutein at 400 nM; set-up: unit not given here
Text: as §1

Row | Binder | Binding Response (CD25-Fc fusion protein) | Binding Response (CD122-Fc fusion protein)
1 | hIL-2 Mutein (K32E, F42C, V69C, C125S) (ligand, The description says F42C and V69C form a disulfide bond; Column headed 'Fusion Protein'; no fusion partner is stated for the assay) APTSSSTKKTQLQLEHLLLDLQMILNGINNYENPKLTRMLTCKFYMPKKATELKHLQCLEEELKPLEECLNLAQSKNFHLRPRDLISNINVIVLELKGSETTFMCEYADETATIVEFLNRWITFSQSIISTLT | < 0.05 | > 0.5
2 | hIL-2 Mutein (R38N, L40T, C125S) (ligand, Column headed 'Fusion Protein'; no fusion partner is stated for the assay) APTSSSTKKTQLQLEHLLLDLQMILNGINNYKNPKLTNMTTFKFYMPKKATELKHLQCLEEELKPLEEVLNLAQSKNFHLRPRDLISNINVIVLELKGSETTFMCEYADETATIVEFLNRWITFSQSIISTLT | < 0.05 | > 0.5
3 | hIL-2 Mutein (K32E, R38E, F42K, C125S) (ligand, Column headed 'Fusion Protein'; no fusion partner is stated for the assay) APTSSSTKKTQLQLEHLLLDLQMILNGINNYENPKLTEMLTKKFYMPKKATELKHLQCLEEELKPLEEVLNLAQSKNFHLRPRDLISNINVIVLELKGSETTFMCEYADETATIVEFLNRWITFSQSIISTLT | < 0.05 | > 0.5
4 | IL-2-IL-15 Chimera 1 (C125S) (ligand, Column headed 'Fusion Protein'; no fusion partner is stated for the assay) APTSSSTKKTQLQLEHLLLDLQMILNGIQSMEIDATTFKFYMPKKATELKHLQCLEEELKPLEEVLNLAQSKNFHLRPRDLISNINVIVLELKGSETTFMCEYADETATIVEFLNRWITFSQSIISTLT | < 0.05 | > 0.5
5 | IL-2-IL-15 Chimera 17 (H16V, C125S) (ligand, Column headed 'Fusion Protein'; no fusion partner is stated for the assay) APTSSSTKKTQLQLEVLLLDLQMILNGIQSMEIDATTFKFYMPKKATELKHLQCLEEELKPLEEVLNLAQSKNFHLRPRDLISNINVIVLELKGSETTFMCEYADETATIVEFLNRWITFSQSIISTLT | < 0.05 | < 0.1
6 | IL-2-IL-15 Chimera 19 (D20T, C125S) (ligand, Column headed 'Fusion Protein'; no fusion partner is stated for the assay) APTSSSTKKTQLQLEHLLLTLQMILNGIQSMEIDATTFKFYMPKKATELKHLQCLEEELKPLEEVLNLAQSKNFHLRPRDLISNINVIVLELKGSETTFMCEYADETATIVEFLNRWITFSQSIISTLT | < 0.05 | < 0.1
7 | IL-2-IL-15 Chimera 35 (I92E, C125S) (ligand, No fusion partner is stated for the assay; also called IL-2-IL-15 Chimera 29 (I92E, C125S)) APTSSSTKKTQLQLEHLLLDLQMILNGIQSMEIDATTFKFYMPKKATELKHLQCLEEELKPLEEVLNLAQSKNFHLRPRDLISNINVEVLELKGSETTFMCEYADETATIVEFLNRWITFSQSIISTLT | < 0.05 | < 0.1
8 | IL-2-IL-15 Chimera 21 (D20A, C125S) (ligand, Column headed 'Fusion Protein'; no fusion partner is stated for the assay) APTSSSTKKTQLQLEHLLLALQMILNGIQSMEIDATTFKFYMPKKATELKHLQCLEEELKPLEEVLNLAQSKNFHLRPRDLISNINVIVLELKGSETTFMCEYADETATIVEFLNRWITFSQSIISTLT | < 0.05 | < 0.1
9 | IL-2-IL-15 Chimera 25 (D20K, C125S) (ligand, Column headed 'Fusion Protein'; no fusion partner is stated for the assay) APTSSSTKKTQLQLEHLLLKLQMILNGIQSMEIDATTFKFYMPKKATELKHLQCLEEELKPLEEVLNLAQSKNFHLRPRDLISNINVIVLELKGSETTFMCEYADETATIVEFLNRWITFSQSIISTLT | < 0.05 | < 0.1
10 | IL-2-IL-15 Chimera 33 (I92D, C125S) (ligand, No fusion partner is stated for the assay; also called IL-2-IL-15 Chimera 29 (I92D, C125S)) APTSSSTKKTQLQLEHLLLDLQMILNGIQSMEIDATTFKFYMPKKATELKHLQCLEEELKPLEEVLNLAQSKNFHLRPRDLISNINVDVLELKGSETTFMCEYADETATIVEFLNRWITFSQSIISTLT | < 0.05 | < 0.1
11 | IL-2-IL-15 Chimera 23 (D20E, C125S) (ligand, Column headed 'Fusion Protein'; no fusion partner is stated for the assay) APTSSSTKKTQLQLEHLLLELQMILNGIQSMEIDATTFKFYMPKKATELKHLQCLEEELKPLEEVLNLAQSKNFHLRPRDLISNINVIVLELKGSETTFMCEYADETATIVEFLNRWITFSQSIISTLT | < 0.05 | < 0.1
12 | IL-2-IL-15 Chimera 31 (I92G, C125S) (ligand, No fusion partner is stated for the assay; also called IL-2-IL-15 Chimera 29 (I92G, C125S)) APTSSSTKKTQLQLEHLLLDLQMILNGIQSMEIDATTFKFYMPKKATELKHLQCLEEELKPLEEVLNLAQSKNFHLRPRDLISNINVGVLELKGSETTFMCEYADETATIVEFLNRWITFSQSIISTLT | < 0.05 | < 0.2
13 | IL-2-IL-15 Chimera 29 (I92A, C125S) (ligand, Column headed 'Fusion Protein'; no fusion partner is stated for the assay) APTSSSTKKTQLQLEHLLLDLQMILNGIQSMEIDATTFKFYMPKKATELKHLQCLEEELKPLEEVLNLAQSKNFHLRPRDLISNINVAVLELKGSETTFMCEYADETATIVEFLNRWITFSQSIISTLT | < 0.05 | < 0.1
14 | IL-2-IL-15 Chimera 15 (H16I, C125S) (ligand, Column headed 'Fusion Protein'; no fusion partner is stated for the assay) APTSSSTKKTQLQLEILLLDLQMILNGIQSMEIDATTFKFYMPKKATELKHLQCLEEELKPLEEVLNLAQSKNFHLRPRDLISNINVIVLELKGSETTFMCEYADETATIVEFLNRWITFSQSIISTLT | < 0.05 | < 0.1
15 | IL-2-IL-15 Chimera 5 (E15K, C125S) (ligand, Column headed 'Fusion Protein'; no fusion partner is stated for the assay) APTSSSTKKTQLQLKHLLLDLQMILNGIQSMEIDATTFKFYMPKKATELKHLQCLEEELKPLEEVLNLAQSKNFHLRPRDLISNINVIVLELKGSETTFMCEYADETATIVEFLNRWITFSQSIISTLT | < 0.05 | > 0.5
16 | IL-2-IL-15 Chimera 27 (N88A, C125S) (ligand, Column headed 'Fusion Protein'; no fusion partner is stated for the assay) APTSSSTKKTQLQLEHLLLDLQMILNGIQSMEIDATTFKFYMPKKATELKHLQCLEEELKPLEEVLNLAQSKNFHLRPRDLISAINVIVLELKGSETTFMCEYADETATIVEFLNRWITFSQSIISTLT | < 0.05 | < 0.1
17 | IL-2-IL-15 Chimera 11 (H16E, C125S) (ligand, Column headed 'Fusion Protein'; no fusion partner is stated for the assay) APTSSSTKKTQLQLEELLLDLQMILNGIQSMEIDATTFKFYMPKKATELKHLQCLEEELKPLEEVLNLAQSKNFHLRPRDLISNINVIVLELKGSETTFMCEYADETATIVEFLNRWITFSQSIISTLT | < 0.05 | < 0.2
